Bridge positions count the residues as written; N and C are the ends. Ends that are not written are not given here.
Target: T1, Abeta 1-42 peptide
T1 construct: Used at 100 micromolar in PBS pH 7.4 at 37 C, where it aggregates into oligomers and fibrils, so it was not a defined monomer in the assays; also called Abeta42; Abeta 42
Assay: Glu-OC (25 ng-0.1 ng) incubated with 100 micromolar Abeta42; A11 reactivity and AFM

T1 sequence (peptide, as listed by the source): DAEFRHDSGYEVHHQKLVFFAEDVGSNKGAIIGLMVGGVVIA

binding result: binds
B1: undercarboxylated osteocalcin (peptide)
peptide: YLYQWLGAPVPYPDPLEPRREVCELNPDCDELADHIGFQEAYRRFYGPV
modifications: disulfide 23-29
notes: also called Glu-OC; uncarboxylated osteocalcin

Source: patent publication US20210230244A1 (NATIONAL INSTITUTE OF IMMUNOLOGY, published 2021)
